Legend:
[1] = target: T1, Recombinant Human DLL4 (delta-like protein 4) (human, UniProt Q9NR61 27-529); experiment: 96-well plate ECL (MSD) binding assay on coated DLL4, 10 nM Fab
T1 construct: Bought recombinant human DLL4 (R&D Systems Cat#1506-D4/CF), coated on the plate; also called rHuman DLL4; Delta-like 4

[2] = target: T1, Recombinant Human DLL4 (delta-like …); experiment: ELISA on coated DLL4, 100 nM Fab
[3] = target: T2, Recombinant Human DLL4 (delta-like protein 4) (human, UniProt Q9NR61 27-524); experiment: ELISA on plate-coated DLL4, 100 nM Fab, signal minus noise
T2 construct: Bought recombinant protein (R&D Systems Cat#1506-D4/CF); also called rHuman DLL4; Delta-like 4

[4] = target: T2, Recombinant Human DLL4 (delta-like …); experiment: ECL (MSD) multispot binding assay, DLL4 immobilised, 10 nM Fab, DLL4 signal over blank

| Binder | ECL signal [1] | ELISA signal [2] | ELISA (Signal-Noise) [3] | Signal/Noise [10 nM Fab] [4] |
| --- | --- | --- | --- | --- |
| Fab VH1-46_IGHD6-6*01_IGHJ1*01 S102A/S103P/S104F/H111F S54A/S59N & L6_IGKJ1*01 (Fab, V domains shown, Fab made in E. coli; CH1 with tags and kappa CL are not included; also called APFF S54A/S59N) VH: QVQLVQSGAEVKKPGASVKVSCKASGYTFTSYYMHWVRQAPGQGLEWMGIINPAGGSTNYAQKFQGRVTMTRDTSTSTVYMELSSLRSEDTAVYYCAREEYAPFSAEYFQFWGQGTLVTVSS VL: not shown | 17300 | 0.1 |  |  |
| Fab VH1-46_IGHD6-6*01_IGHJ1*01 S102A/S103P/S104F/H111F S54G & L6_IGKJ1*01 (Fab, V domains shown, Fab made in E. coli; CH1 with tags and kappa CL are not included; also called APFF S54G) VH: QVQLVQSGAEVKKPGASVKVSCKASGYTFTSYYMHWVRQAPGQGLEWMGIINPGGGSTSYAQKFQGRVTMTRDTSTSTVYMELSSLRSEDTAVYYCAREEYAPFSAEYFQFWGQGTLVTVSS VL: not shown | 47000 | 0.06 |  |  |
| Fab VH1-46_IGHD6-6*01_IGHJ1*01 S102A/S103P/S104F/H111F S54A & L6_IGKJ1*01 (Fab, V domains shown, Fab made in E. coli: CH1 with His6/Flag tags from Plasmid A, kappa constant region from Plasmid C; also called APFF S54A) VH: QVQLVQSGAEVKKPGASVKVSCKASGYTFTSYYMHWVRQAPGQGLEWMGIINPAGGSTSYAQKFQGRVTMTRDTSTSTVYMELSSLRSEDTAVYYCAREEYAPFSAEYFQFWGQGTLVTVSS VL: not shown |  |  | 0.255 | 122 |
| Fab VH1-46_IGHD6-6*01_IGHJ1*01 S102A/S103P/S104F/H111F S54N & L6_IGKJ1*01 (Fab, V domains shown, Fab made in E. coli; CH1 with tags and kappa CL are not included; also called APFF S54N) VH: QVQLVQSGAEVKKPGASVKVSCKASGYTFTSYYMHWVRQAPGQGLEWMGIINPNGGSTSYAQKFQGRVTMTRDTSTSTVYMELSSLRSEDTAVYYCAREEYAPFSAEYFQFWGQGTLVTVSS VL: not shown | 31700 | 0.02 |  |  |
| Fab VH1-46_IGHD6-6*01_IGHJ1*01 S102A/S103P/S104F/H111F P53A & L6_IGKJ1*01 (Fab, V domains shown, Fab made in E. coli: CH1 with His6/Flag tags from Plasmid A, kappa constant region from Plasmid C; also called APFF P53A) VH: QVQLVQSGAEVKKPGASVKVSCKASGYTFTSYYMHWVRQAPGQGLEWMGIINASGGSTSYAQKFQGRVTMTRDTSTSTVYMELSSLRSEDTAVYYCAREEYAPFSAEYFQFWGQGTLVTVSS VL: not shown |  |  | 0.41 | 462 |

Other lines, results leading:

| ECL signal [1] | ELISA signal [2] | ELISA (Signal-Noise) [3] | Signal/Noise [10 nM Fab] [4] | Binder |
| --- | --- | --- | --- | --- |
| 22200 | 0 |  |  | Fab VH1-46_IGHD6-6*01_IGHJ1*01 S102A/S103P/S104F/H111F S54V & L6_IGKJ1*01 (Fab, V domains shown, Fab made in E. coli; CH1 with tags and kappa CL are not included; also called APFF S54V) VH: QVQLVQSGAEVKKPGASVKVSCKASGYTFTSYYMHWVRQAPGQGLEWMGIINPVGGSTSYAQKFQGRVTMTRDTSTSTVYMELSSLRSEDTAVYYCAREEYAPFSAEYFQFWGQGTLVTVSS VL: not shown |
| 10100 | 0 |  |  | Fab VH1-46_IGHD6-6*01_IGHJ1*01 S102A/S103P/S104F/H111F S54P & L6_IGKJ1*01 (Fab, V domains shown, Fab made in E. coli; CH1 with tags and kappa CL are not included; also called APFF S54P) VH: QVQLVQSGAEVKKPGASVKVSCKASGYTFTSYYMHWVRQAPGQGLEWMGIINPPGGSTSYAQKFQGRVTMTRDTSTSTVYMELSSLRSEDTAVYYCAREEYAPFSAEYFQFWGQGTLVTVSS VL: not shown |
| 26300 | 0.02 |  |  | Fab VH1-46_IGHD6-6*01_IGHJ1*01 S102A/S103P/S104F/H111F S54R & L6_IGKJ1*01 (Fab, V domains shown, Fab made in E. coli; CH1 with tags and kappa CL are not included; also called APFF S54R) VH: QVQLVQSGAEVKKPGASVKVSCKASGYTFTSYYMHWVRQAPGQGLEWMGIINPRGGSTSYAQKFQGRVTMTRDTSTSTVYMELSSLRSEDTAVYYCAREEYAPFSAEYFQFWGQGTLVTVSS VL: not shown |
| 41800 | 0.07 |  |  | Fab VH1-46_IGHD6-6*01_IGHJ1*01 S102A/S103P/S104F/H111F S54Q & L6_IGKJ1*01 (Fab, V domains shown, Fab made in E. coli; also called APFF S54Q) VH: QVQLVQSGAEVKKPGASVKVSCKASGYTFTSYYMHWVRQAPGQGLEWMGIINPQGGSTSYAQKFQGRVTMTRDTSTSTVYMELSSLRSEDTAVYYCAREEYAPFSAEYFQFWGQGTLVTVSS VL: not shown |
|  |  | 0.02 | 17.1 | Fab VH1-46_IGHD6-6*01_IGHJ1*01 S102A/S103P/S104F/H111F S59A & L6_IGKJ1*01 (Fab, V domains shown, Fab made in E. coli: CH1 with His6/Flag tags from Plasmid A, kappa constant region from Plasmid C; also called APFF S59A) VH: QVQLVQSGAEVKKPGASVKVSCKASGYTFTSYYMHWVRQAPGQGLEWMGIINPSGGSTAYAQKFQGRVTMTRDTSTSTVYMELSSLRSEDTAVYYCAREEYAPFSAEYFQFWGQGTLVTVSS VL: not shown |

— patent US20120316071A1 (published 2012)
